Common to all, as to experiment: SPR (Biacore)
On the technique in general: In SPR one partner is held on a chip, and binding of the other changes the refractive index at the surface.

For assay [1], the target named is human FcγRIIb receptor protein (R&D Systems) (human) (UniProt P31994).
The next assay concerns the target FcγRIIaR (human) (UniProt P12318).
Assay [2] deals with human FcγRI receptor protein (R&D Systems) (human) (UniProt P12314).
Assay [3] has as its target human H131 FcγRIIa receptor protein (6xHis and GST tags) (human) (UniProt P12318).
Assay [4] addresses human V158 FcγRIIIa receptor protein (6xHis and GST tags) (human) (UniProt P08637).
The target of another assay is FcγRIIIaF (human) (UniProt P08637).
Sequence of FcγRIIIaF (human) (P08637 17-208 limits assumed): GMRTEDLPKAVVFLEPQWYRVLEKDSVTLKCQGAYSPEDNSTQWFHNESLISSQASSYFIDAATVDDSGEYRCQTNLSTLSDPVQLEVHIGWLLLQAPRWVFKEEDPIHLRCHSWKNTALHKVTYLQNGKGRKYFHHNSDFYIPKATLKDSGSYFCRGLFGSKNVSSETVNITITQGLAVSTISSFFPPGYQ

Sequence of human FcγRIIb receptor protein (R&D Systems) (human) (P31994 46-217 limits assumed): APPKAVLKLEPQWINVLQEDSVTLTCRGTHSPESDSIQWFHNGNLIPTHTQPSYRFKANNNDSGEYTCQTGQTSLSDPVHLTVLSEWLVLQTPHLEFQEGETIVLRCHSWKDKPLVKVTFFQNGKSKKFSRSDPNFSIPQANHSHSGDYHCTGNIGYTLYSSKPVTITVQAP
Sequence of FcγRIIaR (human) (P12318 34-217 H167R limits assumed): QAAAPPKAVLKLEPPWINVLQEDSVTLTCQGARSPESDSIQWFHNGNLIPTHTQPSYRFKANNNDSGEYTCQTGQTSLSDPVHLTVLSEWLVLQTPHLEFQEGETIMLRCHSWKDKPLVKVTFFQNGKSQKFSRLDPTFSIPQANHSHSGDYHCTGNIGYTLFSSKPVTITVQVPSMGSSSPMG
Sequence of human V158 FcγRIIIa receptor protein (6xHis and GST tags) (human) (P08637 17-208 F176V limits assumed): as the sequence (P08637 17-208 limits assumed) above, with F160V counted along it
Sequence of human H131 FcγRIIa receptor protein (6xHis and GST tags) (human) (P12318 34-217 limits assumed): as the sequence (P12318 34-217 H167R limits assumed) above, with R134H counted along it
Sequence of human FcγRI receptor protein (R&D Systems) (human) (P12314 16-288 limits assumed): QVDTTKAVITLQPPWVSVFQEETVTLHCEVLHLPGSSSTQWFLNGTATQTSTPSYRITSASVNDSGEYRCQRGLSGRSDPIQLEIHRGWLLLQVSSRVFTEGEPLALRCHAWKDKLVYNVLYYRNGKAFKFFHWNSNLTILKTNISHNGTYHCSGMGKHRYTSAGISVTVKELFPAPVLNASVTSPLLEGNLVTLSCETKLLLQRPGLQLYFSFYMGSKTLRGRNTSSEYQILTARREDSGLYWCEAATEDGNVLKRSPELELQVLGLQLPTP

Substance G236K (antibody) displayed a Fold FcγRIIb in assay [1] of 0.0147 fold. The Fold FcγRIIaR with FcγRIIaR (human) stood at 0.00859 fold.
The corresponding values for G236F (antibody) are 0.0147 fold and 0.00859 fold.
The corresponding values for G237K (antibody) are 0.0147 fold and 0.00859 fold.
For the substance L235N (antibody), the Fold FcγRIIb in assay [1] worked out at 0.147 fold.
As to G236R (antibody), the Fold FcγRIIb in assay [1] is 0.0147 fold. The substance further came in with a Fold FcγRIIaR with FcγRIIaR (human) of 0.00859 fold.
The substance “anti-CD19 IgG1/2 ELLGG antibody with S267E/L328F” had a Fold FcγRIIb in assay [1] of 221 fold. In the assay with FcγRIIaR (human), this substance yielded a Fold FcγRIIaR of 269 fold. This substance registered a Fold FcγRI in assay [2] of 2.35 fold. The same substance came in with a Fold FcγRIIaH in assay [3] of 0.993 fold.
Take S267E/A327D (antibody): in assay [4], the Fold FcγRIIIaV came to 0.00199 fold.
Regarding L235S (antibody), in assay [1], the Fold FcγRIIb turned out to be 0.0147 fold. In addition, the Fold FcγRIIaR with FcγRIIaR (human) came to 0.00859 fold.
Take G237P (antibody): the Fold FcγRIIb in assay [1] was 0.0147 fold. The substance further yielded a Fold FcγRIIaR with FcγRIIaR (human) of 0.00859 fold.
In the case of S267E/A327E (antibody), the Fold FcγRIIIaV in assay [4] was determined as 0.00894 fold.
G236S (antibody): the Fold FcγRIIIaV in assay [4] worked out at 0.00367 fold.
As for L235P (antibody), the Fold FcγRIIb in assay [1] turned out to be 0.00585 fold.
The substance G237E (antibody) registered a Fold FcγRIIb in assay [1] of 0.0147 fold. The substance further returned a Fold FcγRIIaR in the assay with FcγRIIaR (human) of 0.00859 fold.
The substance G236V (antibody) showed a Fold FcγRIIb in assay [1] of 0.0147 fold.
On to L234K (antibody), for which the Fold FcγRIIb in assay [1] is 0.0147 fold. In the assay with FcγRIIaR (human), the Fold FcγRIIaR is 0.00859 fold.
Turning to S267E/H268E/L328F (antibody), the Fold FcγRIIIaV in assay [4] was 0.092 fold.
In turn, G236T (antibody) yielded a Fold FcγRIIb in assay [1] of 0.00225 fold.
Substance “anti-CD19 WT IgG1 antibody (HuAM4G7 Fv, native human IgG1 Fc)” yielded a Fold FcγRIIIaF in the assay with FcγRIIIaF (human) of 1 fold.

For the origin of these results see patent US20170355766A1.
